We go through five variants from FireProtDB (doi:10.1021/bi060907v).

B1: Ribonuclease HII, O74035 (parent)
chain: MKIAGIDEAGRGPVIGPMVIAAVVVDENSLPKLEELKVRDSKKLTPKRREKLFNEILGVLDDYVILELPPDVIGSREGTLNEFEVENFAKALNSLKVKPDVIYADAADVDEERFARELGERLNFEAEVVAKHKADDIFPVVSAASILAKVTRDRAVEKLKEEYGEIGSGYPSDPRTRAFLENYYREHGEFPPIVRKGWKTLKKIAEKVESEKKAEERQATLDRYFRKV

This data set covers variants of B1. The settings on record: Thermococcus kodakarensis (strain ATCC BAA-918 / JCM 12380 / KOD1), pH 9, reversible: Yes, structure 1IO2, whole UniProt chain shown; for ddG of mutation (higher = less stable) / denaturant m value / denaturant midpoint (higher = more stable): 50 °C, GdnHCl, CD, Tris-HCl 20 mM; for Tm / change of melting temperature, mutant - wild type (higher = more stable) / unfolding enthalpy (calorimetric) / unfolding enthalpy (van 't Hoff): Thermal, DSC, Gly-NaOH 20 mM.

As for E8Q, the “ddG of mutation (higher = less stable)” value is -0.6 kcal/mol, the denaturant m value was 3.73 kcal/mol/M, the “denaturant midpoint (higher = more stable)” value (“denaturant midpoint” for short) is 1.97 M and the Tm is 85.9 °C. Further, the “change of melting temperature, mutant - wild type (higher = more stable)” value (from here on “change of melting temperature, mutant”) was 0.6 °C; the “unfolding enthalpy (calorimetric)” value was 158 kcal/mol; the “unfolding enthalpy (van 't Hoff)” value worked out at 163 kcal/mol.

On to E8A, for which the “ddG of mutation (higher = less stable)” value was -2.65 kcal/mol, the denaturant m value was 4.73 kcal/mol/M, the “denaturant midpoint” value turned out to be 2.39 M and the Tm stood at 93.2 °C. Further, the “change of melting temperature, mutant” value is 8 °C; the “unfolding enthalpy (calorimetric)” value is 171 kcal/mol; the “unfolding enthalpy (van 't Hoff)” value is 150 kcal/mol.

In the case of D135A, the “ddG of mutation (higher = less stable)” value was -2.56 kcal/mol, the denaturant m value was 4.85 kcal/mol/M, the “denaturant midpoint” value came out at 2.37 M and the Tm amounted to 90.4 °C. Besides, the “change of melting temperature, mutant” value amounted to 5.2 °C; the “unfolding enthalpy (calorimetric)” value came out at 147 kcal/mol; the “unfolding enthalpy (van 't Hoff)” value came to 153 kcal/mol.

D105A: the “ddG of mutation (higher = less stable)” value is -1.58 kcal/mol, the denaturant m value worked out at 5.66 kcal/mol/M, the “denaturant midpoint” value was determined as 2.17 M and the Tm amounted to 89.4 °C. In addition, the “change of melting temperature, mutant” value was found to be 4.2 °C; the “unfolding enthalpy (calorimetric)” value is 170 kcal/mol; the “unfolding enthalpy (van 't Hoff)” value is 162 kcal/mol.

On to D7N, for which the “ddG of mutation (higher = less stable)” value is -1.67 kcal/mol, the denaturant m value amounted to 4.45 kcal/mol/M, the “denaturant midpoint” value came to 2.18 M and the Tm stood at 88.3 °C. Further, the “change of melting temperature, mutant” value stood at 3.1 °C; the “unfolding enthalpy (calorimetric)” value was 137 kcal/mol; the “unfolding enthalpy (van 't Hoff)” value came out at 163 kcal/mol.

Usually Tm stands for the temperature at which the thermal transition is half complete.
